The data set can be described thus: yeast display, Sf9 membrane polyspecificity reagent, FACS + sequencing; frameworks hold sequencing errors. In a few lines: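 After 36–48 hours of galactose induction, yeast (Saccharomyces cerevisiae BJ5465) displaying a synthetic nanobody library were stained at 4 °C for 1 hour with 10% biotinylated, detergent-solubilized Sf9 membrane reagent. Streptavidin microbeads enriched the stained cells before FACS sorting into low and high (top ~1%) gates on anti-HA and streptavidin fluorescence. Each clone's polyreactivity label reflects its gate of origin.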
Turning to “QVQLVESGGGLVQAGGSLRLSCAASGFNFDYNAMGWYRQAPGKERELVAAISWSGGRTYYADSVKGRFTISRDNAKNTVYLQMNSLKPEDTAVYYCAARARNYPPYNYWGQGTQVTVSS”, the “polyreactivity (PSR sort gate)” value is “high polyreactivity”.
The same measure for “QVQLVESVRGLVQAGGSLRLSCAASGSTFDNNAMGWYRQAPGKEREFVAAITYSGGGSTSYADSVKGRFTISRDNAKNTVYLQMNSLKPEDPAVYDCAAREFETDGYSLVAYNYWGQGTQVTVSS”: “low polyreactivity”.
With “QVQLVESGGGLVQAGGSLRLSCAASGSIFARNAMGWSRQAPGKERELVAGISRRGGSTYYADSVKGRFTISRDNAKNTVYLQMNSLKPEDTAVYYCNAVVYSPPYDYWGQGTQVTVSS”, the “polyreactivity (PSR sort gate)” value is on record as “high polyreactivity”.
The entry for “QVQLVESGGCLVQAGGSLRLSCAASGGIFSYNAMGWYRQAPGKERELVAAISYSGGNTYYADSVKGRFTISRDNAKNTVYLQMNSLKPEDTAVYYCAATGYYNWYTSGYWGQGTQVTVSS” is “high polyreactivity”; for “QVQLVESGGGLVQAGGSLRLSCAASGSIFDFYAMGRYRQAPGKERELVAAISYSGSSTYYADSVKGRFTISRDNAKNTVYLQMNSLKPEDTAVDYCATDYPGGYVYYSRFDYWGQGTQVTVSS” it is “low polyreactivity”; for “QVQLVESGGGLVQAGGSLRLSCAASGIIFPGYAMGWYRQAPGKVRELVAAISSGGDTYYADSVKGLFTISRDNAKNTVYLQMNSLNPEDTAVYYCTAAQLSSDRTSTYGYWGQGTKVTVSS” it is “low polyreactivity”.
Take “QVQLVESGGGLVQAGGSLRLSCAASGRIFPGYAMGWYRQAPGKERELVAAISTNGGRTYYADSVKGRFTISRDNAKNTVYLQMNSLKPEDTAVYYCNAARAVYTQKRFDSWGQGTQVTVSS”: the “polyreactivity (PSR sort gate)” value is listed as “high polyreactivity”.
The entry for “QVQLVESGGGLVQAGGSLRLSCAASGRTFYNTMGWYRQPPGKERELVAAISRGGITNYADSVKGRFTISRDNAKNTVYLQMNSLKPEDTAVYYCNAEPKLYYYYYKFDYWGQGTQVTVAS” is “high polyreactivity”.
In the case of “QVQLVESGGGLVQAGGSLRLSCAASGFIFRSYAMGWYRQAPGKERELVAAISRSGGSTYYADSVKGRFTISRDNAKNTVYLQMNSLKPEDTAVYYCNTARRDREVDYWGQGTQVTVSS”, the “polyreactivity (PSR sort gate)” value is “high polyreactivity”.
The same measure for “QVQLVESGGGLVQAGGSLRLSCAASGRIFPDNTMGGYRQAPGKERELVAVITYSGGSTYYADSVKGRFTISRDNAKNTVYLKMNSLKPEDTAVYYCAARDYYIWFAEVYYWGQGTQVSVSS”: “low polyreactivity”.
Consider “QVQLVESGGGLVQAGGSLRLSCAASGRTFAGYAMGWYRQAPGKERELVAGIRRSGDSTYYADSVKGRFTISRDNAKNTVYLQMNSLKPEDTAVYYCAAAPISKYGPYRGTGYRMGYWGQGTQVTVSS”, for which the “polyreactivity (PSR sort gate)” value was “high polyreactivity”.
As to “QVQLVESGGGLVQAGGSLRVSCAASGLNFYGNAMGWYRQAPGKERELVAAISWSGGNTSYADSVKGRFTISRDNAKNTVYLQMNSLKPDDTAVYYCNADSLPSVERYGYWGQGTQVTVSS”, the “polyreactivity (PSR sort gate)” value is “low polyreactivity”.
The entry for “QVQLVESGGGLVQGGGSLRLSCAASGRTFQTNVMGWYRPAPGKERELVAAITLSGGSTNYADSVKGRFTISRDNAKNTVYVQMNSLKPEDTAVYYCNAERRYRHQWTPHYEYDYWGQGTQVSVSS” is “low polyreactivity”; for “QVQLVESGGGLVQAGGSLRLSCAASGSIFYPNAMGWYRQAPGKEREFVAAITWNGDSTYYADSVKGRFTISRDNAKNTVYLQMNSLKPEDTAVYYCNTDGQGIYSYNKDLSWISGYDYWGQGTQVTVSS” it is “low polyreactivity”; for “QVQLVESGGGLVQAGGSLRLSCAASGFIFSKYAMGWYRQAPGKERELVAAISWSGGSTYYADSVKGRFTISRDNAKNTVYLQMNSLKPEDTAVYYCAADWYFELFRVYAEYDYWGQGTQVTVSS” it is “low polyreactivity”.
The entry for “QVQLVESGGGLVQAGGSLRLSCAASGSIFYNTMGWYRQAPGKERELVAAISGTRASTYYADSVKGRFTISRDNAKNTVYLQMNSLKPEDTAVYYCAAVPAYPRDYDYWGQGTQVTVSS” is “low polyreactivity”.
